Patent US20210330736A1 (UNIVERSITEIT VAN AMSTERDAM, priority 2018, published 2021)

Assays:
[1] = molecular target: T1, GUCY2C (Homo sapiens, UniProt P25092); assay: Th Ser40 phosphorylation in HEK cells co-transfected with Th and GUCY2C (western blot); format: cell-based; parameters: expressed in transfected cells; host or cells: HEK cells (ATCC), calcium-phosphate transfection, co-transfected with mouse Th; conditions: guanylin 10 μM, uroguanylin 1 μM, IBMX 100 μM, 1 hour
Protocol: FIG. 4. GUCY2C activation increases Ser40 phosphorylation. Immunocytochemistry images (A) and western blotting analysis (B) of HEK cultures transfected with Th or Th+GUCY2C. (C) Co-transfected HEK cells were treated with guanylin (G) or uroguanylin (UroG) and changes in Ser40 phosphorylation were studied. The graph represents the statistical analysis (n=3 for Control, n=6 for Guanylin, n=9 for Uroguanylin; Mean±SEM). Unpaired Student's t-test (p-value: **<0.01).
FIG. 5. […] (A) HEK cultures were treated with guanylin, in the presence or absence of IBMX. […] Unpaired Student's t-test (p-values: ****<0.0001, **<0.01, *<0.05). (B) HEK cells were co-transfected with Th and either the wt GUCY2C or a gain-of-function mutant (R792S). Ser40 phosphorylation was studied following guanylin treatment (G). […] Unpaired Student's t-test (p-values: ***<0.001, **<0.01).
HEK cells were maintained in 100-mm Petri dishes and grown in DMEM medium supplemented with L-glutamine, penicillin-streptomycin (Pen&Strep) and 10% heat-inactivated fetal bovine serum (HIFBS). Growing conditions were 37° C. and 5% CO2. For every-other-day passages, HEK cultures were split at a 1:3 dilution. From Friday to Monday, the split proportion was doubled for all cell lines. For passaging, cultures were rinsed with PBS and incubated with 1 mL of trypsin during 5 minutes. Cells were resuspended in growth medium and finally split to the proper dilution. The experiments were performed in 12-well plates. For immunocytochemistry analysis, sterile 18-mm coverslips were added prior to the plating. 500 !μL of cell resuspension was seeded in each well. If experiments were to be performed 48 hours after the plate preparation, 1:5 was the seeding ratio for HEK cells. When the experiments took place 96 hours post-plating, 1:7 was the working dilution for HEK cells. Unless otherwise stated, HEK cultures were processed 96 hours post-plating.
HEK cells were transfected using the calcium-phosphate method. 12-well plates were refreshed with 500 μL of growth medium before transfection. […]

[2] = molecular target: T1, GUCY2C; assay: GUCY2C ligand analysis in HEK-293 cells transfected with GUCY2C and Th (WES); format: cell-based; parameters: expressed in transfected cells; host or cells: HEK-293 cells transfected with GUCY2C and Th; conditions: 10 μM, Th Ser40 corrected for total Th, n=3
Protocol: Potential GUCY2C ligands were tested in HEK-293 cells transfected with GUCY2C and Th and subsequently treated and analyzed by automated western (WES). Th Ser40 was corrected for total Th. Controls were set to 1. Significance is determined by two-tailed t-test on n=3. * p<0.05, **p<0.01, ***p<0.005, “”p<0.001. A) Guanylin control 10 μM. B) Peptides 1 to 5 in an amount of 10 μM. C) Peptides 6 to 11 in an amount of 10 μM.
We designed novel peptides with different activities with respect to endogenous GUCY2C ligands (Table 3). The peptides were analyzed in Th and GUCY2C transfected HEK-293 cells and subsequently tested ex-vivo in mice striatal slices. […] We synthezised uroguanylin and heat stable toxin as controls for the synthezised peptides and they thus are from a different source than the commercially available uroguanylin and heat stable toxin. […] Possibly the effects of the peptides can differ depending on the area in the striatum which is stimulated.

T1 sequence (P25092 24-1073): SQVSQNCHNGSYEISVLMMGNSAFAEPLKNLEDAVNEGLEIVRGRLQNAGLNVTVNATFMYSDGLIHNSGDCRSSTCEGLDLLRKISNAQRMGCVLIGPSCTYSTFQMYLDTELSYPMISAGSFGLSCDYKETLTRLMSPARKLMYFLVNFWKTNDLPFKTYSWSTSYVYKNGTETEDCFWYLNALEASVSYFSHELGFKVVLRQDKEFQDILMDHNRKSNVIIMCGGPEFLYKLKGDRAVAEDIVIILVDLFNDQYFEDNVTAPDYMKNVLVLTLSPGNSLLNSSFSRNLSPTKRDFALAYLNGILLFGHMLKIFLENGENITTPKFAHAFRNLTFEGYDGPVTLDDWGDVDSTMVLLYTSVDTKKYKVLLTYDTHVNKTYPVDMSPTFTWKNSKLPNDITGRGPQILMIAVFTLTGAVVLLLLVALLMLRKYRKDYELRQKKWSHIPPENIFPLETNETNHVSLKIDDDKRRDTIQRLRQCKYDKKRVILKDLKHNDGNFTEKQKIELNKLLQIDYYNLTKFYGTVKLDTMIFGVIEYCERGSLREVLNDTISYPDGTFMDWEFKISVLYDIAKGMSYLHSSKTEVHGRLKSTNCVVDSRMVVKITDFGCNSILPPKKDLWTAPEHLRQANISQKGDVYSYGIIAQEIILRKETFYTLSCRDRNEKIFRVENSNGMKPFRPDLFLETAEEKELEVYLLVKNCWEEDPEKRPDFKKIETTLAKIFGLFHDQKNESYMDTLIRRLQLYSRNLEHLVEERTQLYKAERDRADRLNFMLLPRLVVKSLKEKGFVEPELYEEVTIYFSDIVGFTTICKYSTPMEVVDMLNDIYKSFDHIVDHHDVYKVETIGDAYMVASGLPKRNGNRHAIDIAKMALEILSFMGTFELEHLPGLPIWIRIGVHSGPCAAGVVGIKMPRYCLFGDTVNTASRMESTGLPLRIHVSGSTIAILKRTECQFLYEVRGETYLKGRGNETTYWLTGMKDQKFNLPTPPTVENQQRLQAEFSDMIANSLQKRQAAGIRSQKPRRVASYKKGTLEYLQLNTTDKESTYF

Substance: guanylin: natural agonistic ligand of GUCY2C, 15 amino acid polypeptide; commercially available rat/mouse guanylin (Chemcruz) (PNTCEICAYAACTGC) [reference compound]
- P-Ser40 levels / Ser40 phosphorylation (in words) [1]: increase P-Ser40 levels
- Ser40 phosphorylation in HEK-293 cells (significance, in words) [2]: modest, but significant increase
